From PMC4864350, “Fluorogenic Substrates for In Situ Monitoring of Caspase-3 Activity in Live Cells” (PLoS ONE, 2016)
*: point of attachment. MethylRed = CN(C)c1ccc(/N=N/c2ccccc2C(=O)*)cc1; FAM = 5(6)-carboxyfluorescein; peptoid = not defined here; Ahx = NCCCCCC(=O)O

Columns and labels:
MCF-7 cells = assay: Confocal imaging of staurosporine-treated cells lacking functional caspase-3; format: cell-based; details: cells lack functional caspase-3 but express caspase-7
Method: Fig 5 Confocal microscopy images of HEK293T and MCF-7 cells treated with substrate 27. Confocal microscopy images (objective HCX PL APO ×63/1.40–0.6 Oil CS) of HEK273T cells with substrate 27 (10 μM) without staurosporine (STS) (A) and with staurosporine (1 μM) (B) induced apoptosis (green fluorescence is from fluorescein “turned on” by caspase-3 cleavage of the substrate, blue is DAPI nuclear stain). (C) Staurosporine treated MCF-7 cells with substrate 27.
Cell culture was performed in a Heracell 150 incubator (Heraeus) and in a Herasafe KS 18 class II negative-flow cabinet (Heraeus). […] Fluorescence was evaluated as mean fluorescence intensity (MFI) and estimated <100 u.a. for untreated control cells (consistent values independently of staurosporine addition). Apoptotic cells treated with substrate 1 were used as a positive control to obtain the maximum of fluorescence signal. […] The data were analysed using the software Flowjo® 7.5.
For confocal microscopy, the cells were fixed with 4% paraformaldehyde in PBS and the nuclei stained with Hoechst-33342 (1% w/v in PBS). Cellular fluorescence of cells was analysed using an Inverted Leica DM IRB with filter I3 (450–490 nm) and a Leica SP5 Confocal (FITC and DAPI channel).

caspase-3 = molecular target: T1, caspase-3 (Homo sapiens, UniProt P42574); assay: Kinetic assay of fluorogenic substrates with caspase-3; format: biochemical; details: substrate range 0.1–8 μM, enzyme 20 nM (1–9) or 15 nM (10–14), n = 3
T1 construct: purchased R&D systems, USA
T1 sequence (P42574 29-175 limits assumed): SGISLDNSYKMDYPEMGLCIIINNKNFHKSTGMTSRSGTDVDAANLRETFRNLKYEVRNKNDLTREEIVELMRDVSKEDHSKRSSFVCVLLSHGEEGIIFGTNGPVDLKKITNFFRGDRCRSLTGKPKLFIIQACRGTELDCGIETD
T1 sequence (P42574 176-277 limits assumed): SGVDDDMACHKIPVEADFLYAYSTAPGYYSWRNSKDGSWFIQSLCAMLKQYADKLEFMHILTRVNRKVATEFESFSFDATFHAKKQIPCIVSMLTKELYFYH
Method: The ability of […] (bearing MR as the quencher of choice) to act as s substrate for caspase-3, as well as caspase-7, was investigated by determining the catalytic efficiency (kcat/KM) for each substrate with both enzymes (Table 2).
Caspase-3 or caspase-7 (R&D systems, USA) was added to 100 μL of caspase assay buffer with substrates 1–14 at concentrations from 0.1 μM to 8 μM in a 96-well plate (n = 3) to give final enzyme concentration of 20 nM (1–9) or 15 nM (10–14). Fluorescence (λEx/Em 485/528 nm) was recorded on a Biotek Synergy HT Multi-Mode Microplate Reader every 2 min. Control samples had the same composition but no enzyme. The rate (μM/min) was calibrated using a 5(6)-carboxyfluorescein conversion factor (0.0055 μM/RFU) and data plotted against time (min). For initial cleavage rate (0–5 min), plots were fitted using linear regression analysis and the Michaelis-Menten data generated using GraphPad Prism 5.

Km (caspase-3; fluorescence λEx/Em 485/528 nm, initial rate 0–5 min, Michaelis-Menten): 1.1 ± 0.3 µM
Kcat, Caspase-3 (caspase-3): 0.035 ± 0.013 s⁻¹
Substance: substrate 27: FAM-Ahx-Asp-Leu-Pro-Asp-Lys(MR)-Ahx, conjugated to the cell penetrating peptoid at the C-terminus ({FAM-Ahx}-DLPDK(MethylRed)-{Ahx-peptoid}; reading uncertain; also: printed as FAM-Ahx-Asp-Leu-Pro-Asp-Lys(MR)-Ahx)
fluorescence turn-on in apoptotic MCF-7 cells (confocal) (MCF-7 cells): No fluorescence “turn-on” was observed
